Measured values taken from patent publication US20020132974A1, “BETA SHEET FORMING PEPTIDES AND GELS MADE THEREOF” (priority 1995, published 2002).

Columns and labels:
[1] = response of peptide gels to chemical switches (pH, salt, surfactant, solvent); assay type: physicochemical
Description: As mentioned, the gels of the invention are susceptible to chemical triggers which result in changes in the properties of the gels so that they switch from, for example, a first fluid state to a gel state or vica versa.
Addition of salt causes the network to contract and phase separate as a more concentrated gel phase. Changing the polarity of the solvent, ie making it more polar (water) or non-polar ( chloroform), preserves the β-sheet structure, but the gel network is destabilised and precipitation of the peptide occurs. In strong hydrogen-bonding donor solvents (like hexafluoroisopropanol), the peptide adopts an α-helical conformation (FIG. 3b) and there is no gelation. Solvents containing arornatic groups cause destabilisation of β-tapes by 20-30% and disruption of the gels. This is believed to be due to competition between intermolecular peptide aromatic side-chain interactions and the aromatic groups of the solvent Acetylation at the N-terminus and amination at the C-temiinus of the 27-residue peptide results in a preference for the a-helical conformation and gels are not formed. It seems that favourable interactions between β-nanotapes and solvent are important for gel stabilisation. By appropriate peptide design, peptides can be produced which will form nanotapes and gels in a variety of solvents, including water. For example, peptides derived from the Drosophila Toll receptor protein, from the Alzheimer amyloid peptide and from desmin filaments and from the β-domain of the leu lysozyme (SER-1). Chemical switches also include changes in pH, for example, the hydrophilic peptide AcNH-Gln-Ala-Thr-Asn-Arg-Asn-Thr-AspGly-Ser-Thr-AspTyr-Gly-Ile-Leu-Gin-Ile-Asn-Ser-Arg-CONH2 (SER-1) forms a gel at neutral and acidic pH, whilst it switches to a neutonial fluid at pH higher than 11.

[2] = gel and β-tape formation of peptides in solvents; assay type: physicochemical
Description: Compatibility of the β-sheet surface and the solvent are also essential for gelation as opposed to peptide precipitation out of solution. For example, K24 forms β-tapes with both polar and apolar groups on their surfaces. Thus, they can form gels in solvents with intermediate polarity, corresponding to values of relative dielectric constants, εγ=εr=24-62.
In organic solvents such as ethanol, methanol and 2-chloroethanol we have discovered that the aforementioned peptide sequences self-assemble to provide elongated tapes approximately 8 nm wide and a single molecule in thickness.

| Substance | effect of added 1,1,1,3,3,3-hexafluoropropanol-2 on the gel ([1]; addition of 50% v 1,1,1,3,3,3-hexafluoropropanol-2) | effect of added water on the gel ([1]; addition of 50% v water) | effect of sodium dodecylsulfate (SDS) on the gel ([1]; molar ratio 1 K27-350 SDS) | gel formation in solvents of higher or lower polarity ([2]; polarity above or below dielectric constant 24-62, β-sheet structures poorly soluble, precipitate) | relative dielectric constant of solvents in which gels are formed ([2]; solvents or solvent mixtures of intermediate polarity) | effect of lithium chloride on the gel ([1]; molar ratio 1 peptide-7 lithium chloride) | drop of the fraction of β-sheet structure ([1]; solvents containing aromatic groups) |
| --- | --- | --- | --- | --- | --- | --- | --- |
| NH2-Lys-Leu-Glu-Ala-Leu-Tyr-Ile-Leu-Met-Val-Leu-Cly-Phe-Phe-Gly-Phe-Phe-Thr-Leu-Gly-Ie-Met-Leu-Ser-Tyr-Ile-Arg-CO2H [K27] | destroys the gel | destroys the gel | destroys the gel | – | – | – | – |
| NH2-Lys-Leu-Glu-Ala-Leu-Tyr-Val-Leu-Gly-Phe-Phe-Gly-Phe-Phe-Thr-Leu-Gly-Be-Met-Leu-Ser-Tyr-Rle-Arg-CO2H [K24] | – | – | – | gel is not formed | 24-62 | contracts | 20-30% |
